Assay results published in patent publication US20100022453A1 (UNIVERSITY OF ROCHESTER, published 2010).

T1: NgR1-Fc (mouse NogoR/Fc, R&D Systems) (mouse, UniProt Q99PI8 27-447)
T1 construct: also called soluble NgR1-Fc
T1 sequence (looked up): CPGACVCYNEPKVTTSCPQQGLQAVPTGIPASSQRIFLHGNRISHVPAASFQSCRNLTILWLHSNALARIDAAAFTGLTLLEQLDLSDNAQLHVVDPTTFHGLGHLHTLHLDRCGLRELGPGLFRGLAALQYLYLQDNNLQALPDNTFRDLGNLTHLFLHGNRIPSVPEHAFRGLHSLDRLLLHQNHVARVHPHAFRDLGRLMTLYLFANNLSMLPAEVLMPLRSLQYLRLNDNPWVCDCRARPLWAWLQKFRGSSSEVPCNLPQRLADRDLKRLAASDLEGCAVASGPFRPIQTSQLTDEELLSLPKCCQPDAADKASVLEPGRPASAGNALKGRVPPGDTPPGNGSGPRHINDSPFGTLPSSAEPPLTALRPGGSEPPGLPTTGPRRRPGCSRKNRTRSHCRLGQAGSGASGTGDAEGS

B1: AP-FGF21 (mouse) (ligand, UniProt Q9JJN1 29-210, looked up)
chain: AYPIPDSSPLLQFGGQVRQRYLYTDDDQDTEAHLEIREDGTVVGAAHRSPESLLELKALKPGVIQILGVKASRFLCQQPDGALYGSPHFDPEACSFRELLLEDGYNVYQSEAHGLPLRLPQKDSPNQDATSWGPVRFLPMPGLLHEPQDQAGFLPPEPPDVGSSDPLSMVEPLQGRSPSYAS
notes: not shown: human placental alkaline phosphatase (AP) tag
B2: AP-FGF8 (mouse) (ligand, UniProt P37237-2 23-215, looked up)
chain: QVTVQSSPNFTQHVREQSLVTDQLSRRLIRTYQLYSRTSGKHVQVLANKRINAMAEDGDPFAKLIVETDTFGSRVRVRGAETGLYICMNKKGKLIAKSNGKGKDCVFTEIVLENNYTALQNAKYEGWYMAFTRKGRPRKGSKTRQHQREVHFMKRLPRGHHTTEQSLRFEFLNYPPFTRSLRGSQRTWAPEPR
notes: also called FGF8b; not shown: human placental alkaline phosphatase (AP) tag
B3: rat NgR1 (Nogo-66 receptor), full-length, expressed on cells (receptor)
chain: CPGACVCYNEPKVTTSCPQQGLQAVPTGIPASSQRIFLHGNRISYVPAASFQSCRNLTILWLHSNALAGIDAAAFTGLTLLEQLDLSDNAQLRVVDPTTFRGLGHLHTLHLDRCGLQELGPGLFRGLAALQYLYLQDNNLQALPDNTFRDLGNLTHLFLHGNRIPSVPEHAFRGLHSLDRLLLHQNHVARVHPHAFRDLGRLMTLYLFANNLSMLPAEVLVPLRSLQYLRLNDNPWVCDCRARPLWAWLQKFRGSSSEVPCNLPQRLAGRDLKRLAASDLEGCAVASGPFRPFQTNQLTDEELLGLPKCCQPDAADKASVLEPGRPASAGNALKGRVPPGDTPPGNGSGPRHINDSPFGTLPGSAEPPLTALRPGGSEPPGLPTTGPRRRPGCSRKNRTRSHCRLGQAGSGSSGTGDAEGS
notes: also called Nogo receptor NgR1; NgR1 in COS cells
B4: rat NgR3 expressed on COS-7 cells (receptor, UniProt Q80WD0 25-424, looked up)
chain: CPRDCVCYPSPMTVSCQAHNFAAIPEGIPEDSERIFLQNNHITFLQQGHFSPAMVTLWIYSNNITFIAPNTFEGFVHLEELDLGDNRQLRTLAPETFQGLVKLHALYLYKCGLSSLPAGIFGGLHSLQYLYLQDNHIEYLQDDIFVDLVNLSHLFLHGNKLWSLGQGIFRGLVNLDRLLLHENQLQWVHHKAFHDLHRLTTLFLFNNSLTELQGDCLAPLVALEFLRLNGNAWDCGCRARSLWEWLRRFRGSSSVVPCATPELRQGQDLKSLRVEDFRNCTGPASPHQIKSHTLSTSDRAARKEHHPSHGASRDKGHPHGHLPGSRSGSKKPGKNCTSHRNRNQISKGSAGKELPELQDYAPDYQHKFSFDIMPTARPKRKGKCARRTPIRAPSGVQQAS
notes: whole, on cells; also called NgR3 in COS cells
B5: AP-FGF2 (mouse), alkaline phosphatase tagged FGF2 (ligand, UniProt P15655 10-154, looked up)
chain: PALPEDGGAAFPPGHFKDPKRLYCKNGGFFLRIHPDGRVDGVREKSDPHVKLQLQAEERGVVSIKGVCANRYLAMKEDGRLLASKCVTEECFFFERLESNNYNTYRSRKYSSWYVALKRTGQYKLGSKTGPGQKAILFLPMSAKS
notes: also called bFGF; basic FGF; not shown: human placental alkaline phosphatase (AP) tag
B6: AP-FGF4 (mouse) (ligand, UniProt P11403 30-202, looked up)
chain: APNGTRHAELGHGWDGLVARSLARLPVAAQPPQAAVRSGAGDYLLGLKRLRRLYCNVGIGFHLQVLPDGRIGGVHADTRDSLLELSPVQRGVVSIFGVASRFFVAMSSRGKLFGVPFFTDECKFKEILLPNNYNAYESYAYPGMFMALSKNGRTKKGNRVSPTMKVTHFLPRL
notes: as for B1
B7: Nogo66-Npn1 (human Nogo66 fused to the transmembrane and cytoplasmic portion of rat neuropilin-1) on COS-7 cells (other, human;rat, UniProt Q9NQC3 1055-1120, looked up)
chain: RIYKGVIQAIQKSDEGHPFRAYLESEVAISEELVQKYSNSALGHVNCTIKELRRLFLVDDLVDSLKILITIIAMSALGVLLGAVCGVVLYCACWHNGMSERNLSALENYNFELVDGVKLKKDKLNPQSNYSEA
notes: domain: Nogo66;domain: transmembrane and cytoplasmic portion; Chimeric cell-surface form of Nogo66; also called Nogo66-Npn1 in COS cells
B8: rat NgR2, full-length, expressed on COS-7 cells (receptor)
chain: CPMLCTCYSSPPTVSCQANNFSSVPLSLPPSTQRLFLQNNLIRSLRPGTFGPNLLTLWLFSNNLSTIYPGTFRHLQALEELDLGDNRHLRSLEPDTFQGLERLQSLHLYRCQLSSLPGNIFRGLVSLQYLYLQENSLLHLQDDLFADLANLSHLFLHGNRLRLLTEHVFRGLGSLDRLLLHGNRLQGVHRAAFHGLSRLTILYLFNNSLASLPGEALADLPALEFLRLNANPWACDCRARPLWAWFQRARVSSSDVTCATPPERQGRDLRTLRDTDFQACPPPTPTRPGSRARGNSSSNHLYGVAEAGAPPADPSTLYRDLPAEDSRGRQGGDAPTEDDYWGGYGGEDQRGEQTCPGAAC
notes: also called NgR2 in COS cells

Key:
[1] = molecular target: B8; assay: AP-ligand binding to NgR2 on COS cells
Protocol: (§1) Techniques for ligand binding to NgR1 on COS cells is described in detail in Venkatesh et al. (2005) Journal of Neuroscience 25:808-22, which is incorporated herein by reference in its entirety at least for the methods taught therein. Briefly, receptor constructs were expressed transiently in COS-7 cells in 24-well plates coated with poly-D-lysine (PDL; 50 μg/ml), using Lipofectamine 2000. At 24 h after transfection the cells were rinsed and incubated for 75 min at ambient temperature with alkaline phosphatase tagged FGF1, FGF2, FGF4, FGF8, FGF9, and FGF21. To monitor bound ligand, plates were developed with NBT/BCIP substrate; the color reaction was stopped by two rinses in PBS. For quantification of ligand binding the cells were processed as described above; after ligand incubation the cells were rinsed in HBHA and lysed in 20 mM Tris, pH 8.0, 0.1% Triton X-100. The lysates were incubated at 65° C. for 60 min and spun at 10,000×g for 5 min. The relative AP activity in supernatants was normalized to cell surface receptor expression, using anti-myc (1:1000), anti-NgR1 (1:1000), anti-NgR2 (1:1000), or anti-NgR3 (1:200) antibodies, as described previously (Giger et al., Neuron 21:1079-92, 1998). Scatchard plot analysis was performed analogous to a previous study (Kolodkin et al., Cell 90:753-62, 1997).

[2] = molecular target: B3; assay: AP-ligand binding to NgR1 on COS-7 cells
Protocol: as §1

[3] = molecular target: T2, AP-FGF9 (mouse) (human; mouse, UniProt P54130 4-208); assay: AP-ligand binding to NgR1 on COS-7 cells
Protocol: as §1

[4] = molecular target: T3, AP-sNgR1^CT+stalk (Phe278-Glu445) (human; rat); assay: AP-fusion protein binding to transfected COS-7 cells; (-) = no binding above background
T3 construct: Expressed in HEK293T cells and used as conditioned supernatant

[5] = molecular target: B8; assay: AP-ligand binding to NgR2 on COS-7 cells
Protocol: as §1

[6] = molecular target: B3; assay: AP-tagged ligand binding to NgR1 on COS cells
Protocol: as §1

[7] = molecular target: B3; assay: Scatchard plot analysis of AP-ligand binding to NgR1 on COS-7 cells
Protocol: as §1, with “The relative AP activity in supernatants was normalized to cell surface receptor expression, using anti-myc (1:1000), anti-NgR1 (1:1000), anti-NgR2 (1:1000), or anti-NgR3 (1:200) antibodies, as described previously (Giger et al., Neuron 21:1079-92, 1998). Scatchard plot analysis was performed analogous to a previous study (Kolodkin et al., Cell 90:753-62, 1997).” left out
To address whether NgR1 interacts directly with FGF2, affinity precipitation experiments were performed. […] The complexes of ¹²⁵I-FGF2:NgR1-Fc and ¹²⁵I-FGF2:FGFR1-Fc run at apparent molecular weights of 220- and 250-kDa and higher molecular weight complexes containing ¹²⁵I-FGF2 are detected as well (FIG. 3C).

[8] = molecular target: T1, NgR1-Fc (mouse NogoR/Fc, R&D Systems); assay: affinity precipitation with NgR1-Fc on Protein A/G beads, anti-AP Western blot
Protocol: NgR1-Fc (0.5 μg, R&D Systems) and AP-tagged ligands (1.5 nM final conc.) were mixed in DMEM containing 0.1% BSA and protease inhibitor cocktail and were incubated at 4° C. for 2 h. AP-ligands bound to NgR1-Fc were precipitated with Protein A/G agarose beads after 2 h at 4° C. Samples were rinsed extensively in washing buffer (20 mM Tris-HCl, pH 7.5, 150 mM NaCl, 1% NP40, 5 mM EDTA) and analyzed by Western blotting using an anti-AP antibody. For cross-linking experiments, NgR1-Fc, FGFR1D(IIIb)/Fc, TROY-Fc, or ephrinB3-Fc (R&D Systems) (each at 13 nM), were incubated with 40 nM ¹²⁵I-FGF2 (specific activity: ˜50 μCi/μg, MP Biochem.) with or without the indicated concentrations of cold FGF2 or insulin for 2 h at room temperature in PBS. Cross-linking was initiated by adding BS³ (bis[sulfosuccinimidyl]suberate, Pierce, Rockford, Ill.) to a final concentration of 2 mM and incubating for 30 min at room temperature. The reaction was stopped by adding 2 μl of 1 M Tris-HCl (pH 7.4) and protein complexes were analyzed by SDS-PAGE. Gels were subsequently fixed, dried, and subjected to autoradiography.

[9] = molecular target: B3; assay: AP-ligand binding to NgR1 on COS cells
Protocol: as §1

[10] = molecular target: T2, AP-FGF9 (mouse); assay: AP-ligand binding to NgR2 on COS-7 cells
Protocol: as §1

T3 sequence (P05187 other isoform, or with tags, fused parts or gaps): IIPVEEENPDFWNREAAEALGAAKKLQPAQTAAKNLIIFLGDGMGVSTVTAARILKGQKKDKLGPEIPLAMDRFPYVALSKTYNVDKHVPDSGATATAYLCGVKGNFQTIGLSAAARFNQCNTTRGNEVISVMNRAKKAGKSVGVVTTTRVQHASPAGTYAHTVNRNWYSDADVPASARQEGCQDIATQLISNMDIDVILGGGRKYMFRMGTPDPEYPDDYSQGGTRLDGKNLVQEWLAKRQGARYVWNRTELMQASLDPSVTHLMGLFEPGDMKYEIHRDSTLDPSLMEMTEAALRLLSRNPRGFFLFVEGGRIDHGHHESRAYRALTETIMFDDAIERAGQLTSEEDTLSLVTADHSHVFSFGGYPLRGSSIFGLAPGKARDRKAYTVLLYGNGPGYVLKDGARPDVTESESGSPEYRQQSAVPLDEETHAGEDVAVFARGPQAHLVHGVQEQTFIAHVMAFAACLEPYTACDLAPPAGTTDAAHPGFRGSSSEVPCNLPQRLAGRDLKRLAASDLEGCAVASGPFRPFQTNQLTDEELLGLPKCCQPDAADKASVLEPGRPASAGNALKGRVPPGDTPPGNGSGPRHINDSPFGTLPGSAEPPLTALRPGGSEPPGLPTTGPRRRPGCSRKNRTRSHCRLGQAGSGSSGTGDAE

Binder: B1
binding result [1]: no binding
binding result [2]: no binding

Binder: B2
binding result [1]: no binding
binding result [2]: no binding

Binder: B3
binding result [3]: no binding
binding result [4]: no binding

Binder: B4
binding result [4]: no binding

Binder: B5
binding result [5]: no binding
Kd [6]: ~10 nM
Kd [7]: 16.9 nM
binding result [8]: binds

Binder: B6
binding result [9]: binds
binding result [1]: no binding

Binder: B7
binding result [4]: no binding

Binder: B8
binding result [10]: no binding
binding result [4]: no binding
